Measured values taken from patent US20030175271A1 (Kyowa Kirin, published 2003).

Target: ^125I-labeled human VEGF (human, UniProt P15692-4 27-191, limits assumed, 125I-labeled)
Experiment: competition against ^125I-VEGF (4 ng/ml) binding to coated KDR-7N-Fc
Procedure: Methanol was dispensed in 100 μl portions into wells of a 96-well Immobilon™-P Filtration Plate (manufactured by Millipore) to give hydrophilic nature to the PVDF membrane on the bottom of the plate. […] After washing, PBS containing 1% bovine serum albumin (BSA) was added in 200 μl/well portions and the reaction was carried out at room temperature for 30 minutes to block the remaining active residues.

Sequence of ^125I-labeled human VEGF (P15692 other isoform, or with tags, fused parts or gaps limits assumed): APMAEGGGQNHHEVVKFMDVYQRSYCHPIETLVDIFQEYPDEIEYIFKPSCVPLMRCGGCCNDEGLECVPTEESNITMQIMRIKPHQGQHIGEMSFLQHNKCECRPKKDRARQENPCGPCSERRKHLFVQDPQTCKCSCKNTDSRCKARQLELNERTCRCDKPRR

binding result: no binding
B1: soluble human VEGF receptor KDR-1N-Fc (Fc fusion)
chain: ASVGLPSVSLDLPRLSIQKDILTIKANTTLQITCRGQRDLDWLWPNNQSGSEQRVEVTECSDGLFCKTLTIPKVIGNDTGAYKCFYRETDLASVIYVYVQDYRS
notes: not shown: linker #1 (6 residues)
